This note sets out measurements from publication PMC8001533, “A Tryptophan ‘Gate’ in the CRISPR-Cas3 Nuclease Controls ssDNA Entry into the Nuclease Site, That When Removed Results in Nuclease Hyperactivity”.

The target of one series is T1, Cas3W406A (Escherichia coli K-12 MG1655, UniProt P38036 1-888, W406A).
T1 sequence: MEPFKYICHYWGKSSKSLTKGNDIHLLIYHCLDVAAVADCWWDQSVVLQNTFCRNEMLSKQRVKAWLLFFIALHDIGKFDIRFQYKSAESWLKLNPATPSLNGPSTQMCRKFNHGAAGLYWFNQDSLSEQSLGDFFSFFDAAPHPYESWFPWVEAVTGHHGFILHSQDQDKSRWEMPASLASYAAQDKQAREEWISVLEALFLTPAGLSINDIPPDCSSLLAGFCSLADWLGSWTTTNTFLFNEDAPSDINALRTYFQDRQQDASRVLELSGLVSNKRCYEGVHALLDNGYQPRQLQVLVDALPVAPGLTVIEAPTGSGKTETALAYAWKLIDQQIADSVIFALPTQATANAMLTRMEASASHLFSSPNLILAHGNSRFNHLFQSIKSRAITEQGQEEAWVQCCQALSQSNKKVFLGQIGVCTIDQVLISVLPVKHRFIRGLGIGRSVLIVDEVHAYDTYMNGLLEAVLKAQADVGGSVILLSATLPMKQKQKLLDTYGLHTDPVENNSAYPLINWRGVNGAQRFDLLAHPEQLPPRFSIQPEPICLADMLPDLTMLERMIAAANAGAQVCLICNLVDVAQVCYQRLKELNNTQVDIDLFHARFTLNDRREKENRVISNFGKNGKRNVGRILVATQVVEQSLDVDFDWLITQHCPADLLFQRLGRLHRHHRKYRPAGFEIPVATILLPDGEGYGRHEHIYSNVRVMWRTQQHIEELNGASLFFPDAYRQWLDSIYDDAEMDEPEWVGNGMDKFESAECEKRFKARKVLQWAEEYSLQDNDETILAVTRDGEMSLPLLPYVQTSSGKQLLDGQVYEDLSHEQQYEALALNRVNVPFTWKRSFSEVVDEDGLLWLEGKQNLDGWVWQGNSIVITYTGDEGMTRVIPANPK
The series is described as follows: EMSA; not more stable or efficient than wild type; EMSA: 20 nM fork DNA, 50 mM Tris-HCl pH 7.5, 100 mM NaCl, 0.1 mg/mL BSA, 20 mM DTT, room temperature, 1 h. Conditions: protein: recombinant; tags: (His)6-MBP or His6 (pIIB39 is the His6 pAH4 version); label: 5'-Cy5 on strand 1 (MW12); fork 1:2; as printed strand 1 nt 2-25 pair with strand 2 nt 27-50.

The next series addresses T2, Cas3 wild type (Escherichia coli K-12 MG1655, UniProt P38036 1-888).
T2 sequence: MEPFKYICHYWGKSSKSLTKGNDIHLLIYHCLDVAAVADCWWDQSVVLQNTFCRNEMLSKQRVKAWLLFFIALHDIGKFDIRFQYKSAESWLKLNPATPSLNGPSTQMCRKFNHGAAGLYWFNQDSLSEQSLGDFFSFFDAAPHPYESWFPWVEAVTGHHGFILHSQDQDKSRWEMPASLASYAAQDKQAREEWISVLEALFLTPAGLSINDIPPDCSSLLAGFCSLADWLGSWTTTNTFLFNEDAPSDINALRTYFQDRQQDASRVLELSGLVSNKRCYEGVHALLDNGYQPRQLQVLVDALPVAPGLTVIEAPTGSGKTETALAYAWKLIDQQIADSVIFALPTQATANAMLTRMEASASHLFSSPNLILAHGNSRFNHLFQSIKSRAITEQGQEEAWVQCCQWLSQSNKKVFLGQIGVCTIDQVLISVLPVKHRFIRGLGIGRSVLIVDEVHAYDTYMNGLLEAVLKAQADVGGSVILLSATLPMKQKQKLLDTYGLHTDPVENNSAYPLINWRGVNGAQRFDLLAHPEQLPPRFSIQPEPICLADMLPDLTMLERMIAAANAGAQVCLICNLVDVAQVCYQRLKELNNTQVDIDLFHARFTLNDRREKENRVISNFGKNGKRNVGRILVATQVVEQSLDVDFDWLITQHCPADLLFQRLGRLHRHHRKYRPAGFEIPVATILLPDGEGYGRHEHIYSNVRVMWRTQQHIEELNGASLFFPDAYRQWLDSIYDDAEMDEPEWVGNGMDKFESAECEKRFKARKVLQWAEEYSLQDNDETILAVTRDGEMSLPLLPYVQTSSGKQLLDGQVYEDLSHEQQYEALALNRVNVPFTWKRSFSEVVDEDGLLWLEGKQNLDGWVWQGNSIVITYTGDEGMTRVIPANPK
The series is described as follows: EMSA; EMSA: 20 nM fork DNA, 50 mM Tris-HCl pH 7.5, 100 mM NaCl, 0.1 mg/mL BSA, 20 mM DTT, room temperature, 1 h. Conditions: protein: recombinant; tags: (His)6-MBP N-terminal (pCas3); a His6-only construct (pAH4) also exists; label: 5'-Cy5 on strand 1 (MW12); fork 1:2; as printed strand 1 nt 2-25 pair with strand 2 nt 27-50. (In general: In EMSA bound probe runs differently from free probe, usually more slowly.)

B1: DNA fork MW12/MW14 (mixed)
DNA 1: GTCGGATCCTCTAGACAGCTCCATGATCACTGGCACTGGTAGAATTCGGC
DNA 2: CAACGTCATAGACGATTACATTGCTACATGGAGCTGTCTAGAGGATCCGA
Turning to B1, the binding result with Cas3W406A and with Cas3 wild type was “binds” each time.
